In paper PMC4100090, “A Simple Three-Step Method for Design and Affinity Testing of New Antisense Peptides: An Example of Erythropoietin” (International Journal of Molecular Sciences, 2014):

Tests used:
[1] = circular dichroism spectroscopy; type: physicochemical; settings: 1 mg/mL peptide, phosphate buffer 0.1 M, pH = 7.4, 25 °C, 1 cm cuvette, averages of five scans; negative peak around 200 nm
Protocol: The circular dichroism spectra were measured with Jasco J-815 CD spectrometer equipped with thermostated cell holder in a rectangular 1 cm cuvette (Jasco Inc., Easton, MD, USA). Conditions: concentration of peptides = 1 mg/mL, phosphate buffer = 0.1 M, pH = 7.4, temperature = 25 °C. Spectra are presented as averages of five scans, and corrected for buffer spectrum.

[2] = biological target: T1, Erythropoietin P2 epitope peptide (Homo sapiens); assay: tryptophan fluorescence titration
T1 chain: LKLYTGEACRTGDR

[3] = biological target: T1, Erythropoietin P2 epitope peptide; assay: microscale thermophoresis

| Molecule | secondary structure by CD spectroscopy [1] | Kd [2] [µM] | Kd [3] [µM] |
| --- | --- | --- | --- |
| LKLYTGEACRTGDR | random coil structure |  |  |
| DFDIWPLRTAWPLS [EPO-P2 antisense peptide] |  | 850 | 816 |
